Source: publication PMC3170926 (Bioconjugate chemistry, 2011)
Where two headings read alike, the source gives them in different places.

Columns and labels:
[1] = design: species or system SCID mice; details: mouse, in vivo
[2] = design: species or system SCID mice; details: mouse, in vivo; remark: listed apart in the source
[3] = system: integrin αvβ3 positive PC-3 tumor xenografts; design: species or system SCID mice; details: mouse, in vivo
[4] = design: species or system SCID mice; details: mouse, in vivo, tumor uptake
[5] = system: integrin αvβ3 positive PC-3 tumor xenografts; design: species or system SCID mice; details: mouse, in vivo; remark: listed apart in the source
[6] = design: species or system SCID mice; details: mouse, in vivo; remark: listed apart in the source
[7] = cited from earlier work; for thermodynamic stability constant log K: Ga(III) complex
integrin αvβ3 = integrin αvβ3 (human (endogenous in U87MG), UniProt P06756 31-1048; P05106 27-788); assay: radioligand binding
Chain of integrin αvβ3 (P06756 31-1048, chain 1 of 2): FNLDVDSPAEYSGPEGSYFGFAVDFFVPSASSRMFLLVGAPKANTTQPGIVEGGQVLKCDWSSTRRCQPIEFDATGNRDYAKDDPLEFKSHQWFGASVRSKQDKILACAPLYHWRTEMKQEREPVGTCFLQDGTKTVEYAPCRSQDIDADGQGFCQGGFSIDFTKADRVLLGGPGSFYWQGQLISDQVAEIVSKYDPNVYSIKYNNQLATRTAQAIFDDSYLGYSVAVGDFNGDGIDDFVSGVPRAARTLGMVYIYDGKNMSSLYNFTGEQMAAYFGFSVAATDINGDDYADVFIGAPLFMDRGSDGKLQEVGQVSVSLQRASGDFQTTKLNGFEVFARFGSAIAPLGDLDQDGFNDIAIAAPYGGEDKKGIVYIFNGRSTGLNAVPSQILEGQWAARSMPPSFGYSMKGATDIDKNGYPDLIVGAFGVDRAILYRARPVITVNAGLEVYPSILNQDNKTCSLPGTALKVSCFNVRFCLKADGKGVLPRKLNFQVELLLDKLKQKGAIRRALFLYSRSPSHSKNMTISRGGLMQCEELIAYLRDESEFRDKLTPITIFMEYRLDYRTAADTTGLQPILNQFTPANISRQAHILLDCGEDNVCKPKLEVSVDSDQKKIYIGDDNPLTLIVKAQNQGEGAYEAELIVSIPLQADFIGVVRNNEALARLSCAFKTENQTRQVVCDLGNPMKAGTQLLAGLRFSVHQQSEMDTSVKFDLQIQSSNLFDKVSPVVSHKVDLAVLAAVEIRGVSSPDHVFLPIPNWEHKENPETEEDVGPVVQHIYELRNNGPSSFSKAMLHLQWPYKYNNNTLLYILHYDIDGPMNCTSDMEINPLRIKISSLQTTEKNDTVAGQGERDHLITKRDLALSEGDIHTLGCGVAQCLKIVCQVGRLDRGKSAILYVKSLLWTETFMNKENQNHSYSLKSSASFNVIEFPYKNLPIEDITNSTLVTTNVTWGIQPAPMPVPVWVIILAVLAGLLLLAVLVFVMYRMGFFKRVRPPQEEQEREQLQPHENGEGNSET
Chain of integrin αvβ3 (P05106 27-788, chain 2 of 2): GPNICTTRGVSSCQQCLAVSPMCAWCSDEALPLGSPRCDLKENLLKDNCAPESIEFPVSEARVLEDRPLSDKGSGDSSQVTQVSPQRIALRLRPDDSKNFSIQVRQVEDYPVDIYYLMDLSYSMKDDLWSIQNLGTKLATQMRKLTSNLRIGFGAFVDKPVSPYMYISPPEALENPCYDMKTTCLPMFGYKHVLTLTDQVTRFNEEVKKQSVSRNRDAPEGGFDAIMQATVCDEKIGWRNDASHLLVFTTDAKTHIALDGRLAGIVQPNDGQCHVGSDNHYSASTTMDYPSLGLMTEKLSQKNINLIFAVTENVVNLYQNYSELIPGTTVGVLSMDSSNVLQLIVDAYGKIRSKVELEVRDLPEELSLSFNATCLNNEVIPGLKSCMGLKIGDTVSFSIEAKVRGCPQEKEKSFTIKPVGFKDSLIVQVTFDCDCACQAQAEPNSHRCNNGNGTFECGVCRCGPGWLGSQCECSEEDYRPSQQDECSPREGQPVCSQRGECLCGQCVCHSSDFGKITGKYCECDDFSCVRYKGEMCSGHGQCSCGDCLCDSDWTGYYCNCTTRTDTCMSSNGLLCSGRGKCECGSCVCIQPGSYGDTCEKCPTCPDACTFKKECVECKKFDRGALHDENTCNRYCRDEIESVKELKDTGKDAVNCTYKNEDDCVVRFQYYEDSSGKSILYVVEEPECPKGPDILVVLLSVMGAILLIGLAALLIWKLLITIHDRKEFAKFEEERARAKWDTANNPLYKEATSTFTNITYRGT

In the case of `N=C(N)NCCC[C@@H]1NC(=O)[C@H](CCCCNC(=S)Nc2ccc(C[C@H]3CN(CC(=O)O)CCN(CC(=O)O)CCN3CC(=O)O)cc2)NC(=O)[C@@H](Cc2ccc(O)cc2)NC(=O)[C@H](CC(=O)O)NC(=O)CNC1=O` [^68Ga-1a, metal not drawn], the half-life ([1]; t1/2(α), distribution half-life) is reported as 4 ± 1.1 min, the half-life ([1]; t1/2(β), terminal half-life) is reported as 29.8 ± 7.1 min and the tissue uptake at 0.5 h ([2]; kidney uptake) is reported as 6.25 ± 0.61 %ID/g. The tissue uptake at 2 h ([2]; kidney uptake) was 2.95 ± 0.76 %ID/g, the tissue uptake at 0.5 h ([2]; liver uptake) was 1.98 ± 0.29 %ID/g and the tissue uptake at 2 h ([2]; tumor uptake) was 1.63 ± 0.19 %ID/g. The “kidney uptake retained at 2 h p.i.” value [3] was “less than 60%”, the tissue uptake at 2 h [4] was 1.4 ± 0.36 %ID/g and the “tumor uptake retention at 2 h p.i.” value [5] was 43%. The “metabolites in urine by radio-HPLC” value [6] was “no metabolites were detected”.

In the case of `O=C([O-])CN1CCN(CC(=O)[O-])CCN(CC(=O)[O-])CC1.[Ga+3]` [Ga(III)-NOTA complex], the acid-catalyzed dissociation ([7]; 6N HNO3 for 6 days) is given as “stay inert against the acid-catalyzed dissociation”, the “thermodynamic stability constant log K” value ([7]; ref 22, 24) is given as 30.98 and the “thermodynamic stability constant log K” value ([7]; ref 24) is given as 30.98.

In the case of `O=C([O-])CN1CCN(CC(=O)[O-])CCN(C(CC(=O)O)C(=O)[O-])CC1.[Ga+3]` (stereo not shown) [Ga-NODASA], the “thermodynamic stability constant log K” value ([7]; ref 24) is listed as 30.9.

In the case of `O=C([O-])CN1CCN(CC(=O)[O-])CCN(CC(=O)O)CCN(CC(=O)[O-])CC1.[Ga+3]` [DOTA complex with Ga(III)], the “thermodynamic stability constant log K” value ([7]; ref 39) is given as 21.33.

For cyclo(RGDYK) (not fully specified (residue 4)) [c(RGDyK) peptide], the IC50 (integrin αvβ3) was 204 nM.
